# Experimental data from US20220054588A1, “USE OF SAP FOR THE TREATMENT OF EUROTIOMYCETES FUNGI INFECTIONS” (HUMANITAS MIRASOLE S.P.A., priority 2018, published 2022).
# B1: murine PTX3: Recombinant murine PTX3 purified from Chinese hamster ovary cells (protein)
# chain: ETSDDYELMYVNLDNEIDNGLHPTEDPTPCDCRQEHSEWDKLFIMLENSQMREGMLLQATDDVLRGELQRLRAELGRLAGGMARPCAAGGPADARLVRALEPLLQESRDASLRLARLEDAEARRPEATVPGLGAVLEELRRTRADLSAVQSWVARHWLPAGCETAIFFPMRSKKIFGSVHPVRPMKLESFSTCIWVKATDVLNKTILFSYGTKWNPYEIQLYLSSQSLVLVVGGKENKLAADTVVSLGRWSHLCGTWSSEQGSMSLWANGELVATTVEMAKSHSVPEGGLLQIGQEKNGCCVGGGFDESLAFSGRITGFNIWDRVLSEEEIRASGGVESCHIRGNVVGWGVTEIQAHGGAQYVS
# B2: SAP: Serum Amyloid P component, species not printed at the place; murine Sap per legend b89 for b91, unstated for b97 (protein, UniProt P12246 21-224, looked up)
# Serum amyloid P-component: QTDLKRKVFVFPRESETDHVKLIPHLEKPLQNFTLCFRTYSDLSRSQSLFSYSVKGRDNELLIYKEKVGEYSLYIGQSKVTVRGMEEYLSPVHLCTTWESSSGIVEFWVNGKPWVKKSLQREYTVKAPPSIVLGQEQDNYGGGFQRSQSFVGEFSDLYMWDYVLTPQDILFVYRDSPVNPNILNWQALNYEINGYVVIRPRVWD
# Assays:
# [1] = test system: A. fumigatus conidia; experiment: FACS binding of biotin-conjugated murine SAP to A. fumigatus conidia, with competition; parameters: species or system Aspergillus fumigatus; settings: Sap 0.1-10 μg/ml; Ptx3 50 μg/ml; anti-Sap monoclonal antibody detection
# Description: FIG. 1 depicts the interaction of SAP with A. fumigatus conidia in mice. a) induction of SAP circulating levels after i.t. injection of 5×10^7 A. fumigatus (AF) conidia; LPS, 0.8 mg/Kg. Mean±SD. c) FACS analysis of binding of biotin-conjugated (b-) murine SAP (Sap; 10 μg/ml) to viable dormant or germinating conidia of AF (1×10^8). Human SAP (50 μg/ml) and CRP (50 μg/ml) were also used. Mean±SD of one quadruplicate experiment of two performed.
# FIG. 10 depicts the susceptibility to A. fumigatus associated with single or double deficiency for SAP and PTX3. a and b, survival of wt and Apcs^−/−, Ptx3^−/− and Apcs^−/−, Ptx3^−/− mice after i.t. injection of 1×10^8 (a) or 5×10^7 (b) conidia. a, wt, n=9 (a, b); n=9 (a, b); Ptx3^−/−, n=7 (a) or n=10 (b); Ptx3^−/−, n=5 (a) or n=12 (b). a, b, P<0.05, wt vs. Apcs^−/− P<0.01 wt vs. Apcs^−/−, Ptx3^−/−; P=0.06, Apcs^−/−, Ptx3^−/− vs. Ptx3^−/− (Mantel-Cox test). a) Curves of wt and Apcs^−/− refer to the same ones shown in FIG. 2a-c FACS analysis of Sap (range from 0.1 to 10 μg/ml) binding to viable AF conidia (1×10^8) in presence of Ptx3 (50 μg/ml). An anti-Sap monoclonal antibody (non-reactive to Ptx3) was used. Mean±SD of a triplicate. **, P<0.01;***, P<0.005;****, P<0.0001 (unpaired t-test).
# Binding of SAP. Conidia of A. fumigatus and A. flavus (1×10^8 CFU) were cultured 4 and 16 h under static condition in Sabouraud medium to respectively allow conidia swelling and germination. Blastospores and yeast of Candida albicans were prepared as previously described (Santus et al., 2017). Yeast (8×10^6/ml) were incubated at 37° C. for hyphal induction. Formation of hyphae was evaluated under a microscope at different time points until its amount was assessed at 95%. […] After extensive washing, samples were incubated (30 min, r. t.) with Alexa Fluor® 647-conjugated streptavidin and binding was evaluated by FACS as frequency and MFI and visualized by confocal microscopy as described. […]
# [2] = test system: neutrophils in whole blood; experiment: Whole blood phagocytosis of A. fumigatus conidia by mouse neutrophils (FACS), with CD11b expression; format: cell-based, mice; settings: SAP pre-opsonised conidia; for phagocytosis by neutrophils: 1 and 20 min
# Description: FIGS. 7a and 7b depict the effect of SAP on A. fumigatus phagocytosis by neutrophils. a), b), FACS analysis (out of 3 performed) of phagocytosis (a) and CD11b internalization (b) in neutrophils after challenge with fluorescein-labelled AF conidia (5×10^6/100 μl of blood) opsonized or not with Sap is shown. a) neutrophil phagocytosis in whole blood of wt and Apcs^−/− mice. b) CD11b expression in neutrophils of a. a) and b) Mean±SEM;*, P<0.05;**, P<0.01;***, P<0.005;****, P<0.0005 (unpaired t-test).
# FIG. 7c depicts the effect of human SAP on phagocytic activity. FACS analysis of neutrophil phagocytosis in blood of wt and Apcs^−/− mice after exposure with fluorescein-labelled AF conidia (5×10^6/100 μl of blood) opsonized or not with SAP. Figure refers to 2 experiments performed.***, P<0.005;***, P<0.0005 (unpaired t-test).
# Cells and in vitro phagocytic activity. Phagocytosis assay in whole blood of A. fumigatus conidia by mouse and human neutrophils was performed as described (Moalli et al., 2010). Briefly, conidia (1×10^9) were labelled (1 h, r.t.) with FITC (Sigma-Aldrich; 5 mg/ml in DMSO), and eventually opsonized (1 h, r.t) with murine SAP (100 μg/ml; […]) and PTX3 (50 μg/ml; 1.1 μM). An amount of 1×10^7 FITC-conidia were added to 200 μl of mouse whole blood (collected with heparin) and incubated for 1, 5, 10, 20 or 30 min at 37° C. in an orbital shaker. Samples were immediately placed on ice and ACK lysis solution was added to lyse erythrocytes. Murine neutrophils were analysed by BD FACS Canto™ II Flow Cytometer (BD Biosciences) as previously described, and frequency and/or mean fluorescence intensity (MFI) of FITC neutrophils and CD11b expression were reported.
# [3] = test system: U937 cells; experiment: Phagocytosis of A. fumigatus conidia by U937 cells overexpressing DC-SIGN; format: cell-based, human; settings: U937 stably transfected for DC-SIGN and control cells
# Excerpt: FIG. 9 depicts how SAP effect on phagocytosis is independent from its interaction with DC-SIGN. a) detection of DC-SIGN expression in transfected U937 cells by FACS. Untransfected cells and an irrelevant IgG were used as control. Mean±SD of a quadruplicate experiment is shown. b) FACS analysis of fluorescein-labelled AF conidia (1×10^7) phagocytosis by U937 cells (1×10^5) overexpressing DC-SIGN.
# U937 cell lines [control (ATCC® CRL-1593.2™) and transduced with human DC-SIGN (ATCC® CRL-3253™)] were cultured in RPMI-1640 medium containing 5% FCS, 2 mM L-glutamine, 0.1 mM non-essential amino acids (all from Lonza-BioWhittaker™) and 0.05 mM 2-mercaptoethanol (BIO-RAD). DC-SIGN expression was ascertained by FACS using a rabbit polyclonal Ab (#ab5715, 5 μg/ml; AbCam, UK) and an Alexa Fluor® 488-conjugated goat anti rabbit (2 μg/ml; ThermoFisher-Molecular Probes). Phagocytosis of FITC-labelled A. fumigatus conidia (1×10^7) by U937 cells (1×10^5) was performed as above described above.
Molecule,competition of murine SAP binding to conidia [1],CD11b internalization in neutrophils ([2]; Apcs−/− neutrophils),phagocytosis by neutrophils ([2]; Apcs−/− whole blood),CD11b internalization in neutrophils ([2]; wt neutrophils),phagocytosis by neutrophils ([2]; wt whole blood),"SAP-mediated enhancement of phagocytosis, DC-SIGN transfected versus control cells [3]"
B1,competed,–,–,–,–,–
B2,–,restored CD11b internalization,rescued the defect,prompted it,potentiated phagocytosis,similar
